Data published in patent publication US20150210768A1, “Methods and Compounds for Preventing, Treating and Diagnosing an Inflammatory Condition” (Westfaelische Wilhelms-Universitaet Muenster, priority 2012, published 2015).
Changes are numbered by the printed parent chain. In names and notes the source's numbering stands. Each block holds one molecule with its values, some of them ahead of it.

Legend:
[1] = biological target: TLR4/MD2 (Homo sapiens, UniProt O00206); test: Immunoprecipitation of peptides on bead-coupled TLR4/MD2, eluates analysed by MALDI-TOF mass spectrometry; assay type: binding; set-up: purchased R&D SYSTEMS; conditions: bead-coupled his-tagged rhTLR4/MD2, 1 mM Calcium, 3 h at 4° C.; MALDI-TOF detection; FIG. 3B, 4, 5
Chain of TLR4/MD2 (O00206 24-631 limits assumed): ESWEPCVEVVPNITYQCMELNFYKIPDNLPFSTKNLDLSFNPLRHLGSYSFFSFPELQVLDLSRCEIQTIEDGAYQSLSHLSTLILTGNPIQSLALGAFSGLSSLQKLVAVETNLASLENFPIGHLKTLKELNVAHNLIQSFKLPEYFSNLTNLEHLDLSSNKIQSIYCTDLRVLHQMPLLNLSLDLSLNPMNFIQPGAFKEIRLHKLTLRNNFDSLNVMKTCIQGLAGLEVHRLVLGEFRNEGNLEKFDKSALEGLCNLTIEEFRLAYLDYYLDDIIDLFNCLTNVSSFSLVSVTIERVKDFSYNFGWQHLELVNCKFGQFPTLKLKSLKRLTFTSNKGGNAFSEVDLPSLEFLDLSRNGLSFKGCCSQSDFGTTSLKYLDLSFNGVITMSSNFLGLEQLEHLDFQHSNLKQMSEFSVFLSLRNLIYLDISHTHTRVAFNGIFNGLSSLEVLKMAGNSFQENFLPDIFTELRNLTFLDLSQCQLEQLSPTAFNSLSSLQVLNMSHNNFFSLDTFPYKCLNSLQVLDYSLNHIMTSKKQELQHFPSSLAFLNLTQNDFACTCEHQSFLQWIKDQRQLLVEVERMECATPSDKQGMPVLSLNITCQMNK
Chain of TLR4/MD2 (Q9Y6Y9 17-160 partner limits assumed): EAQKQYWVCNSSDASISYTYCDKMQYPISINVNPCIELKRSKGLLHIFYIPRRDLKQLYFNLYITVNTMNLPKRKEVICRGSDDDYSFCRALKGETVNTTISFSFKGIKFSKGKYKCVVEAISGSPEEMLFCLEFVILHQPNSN
Procedure: (§1) Anti-His antibody (5 μL, 0.5 mg/mL, Invivogen) and his-tagged rhTLR4/MD2 (5 μL, 1 mg/mL, carrier free, R&D SYSTEMS) were mixed and coupled to Protein A/G Agarose (50 μl, Pierce, Thermo Scientific). Trypsin digested peptides of S100A9 were added for 3 h at 4° C. in the presence of 1 mM Calcium. After washing of the beads in HBS/1 mM Ca-buffer for three times bound peptidic fragments were eluted by addition of 10 mM TRIS/2 mM EDTA-buffer and analysed by ESI-QIT- and MALDI-TOF-mass spectrometry. Identical experiments were performed to analyze the binding of the chemical synthesized peptides of S100A9 (aa63-79), S100A8 (aa55-71) and the corresponding control peptides aa63-79 AS and aa55-71 A3.

[2] = biological target: T1, his-tagged rhTLR4/MD2 (human, UniProt O00206 24-631; Q9Y6Y9 19-160); test: pull-down on beads carrying TLR4/MD2, MALDI-TOF mass spectrometry of the eluate
T1 construct: Bought recombinant human complex (carrier free, R&D SYSTEMS), his-tagged; In the pull-down it was captured by anti-His antibody on Protein A/G agarose; in the ELISA it was coated on the plate; also called TLR4/MD2 complex; TRLR4/MD2
T1 sequence (O00206 24-631 limits assumed, chain 1 of 2): as the sequence (O00206 24-631 limits assumed) above
T1 sequence (Q9Y6Y9 19-160 limits assumed, chain 2 of 2): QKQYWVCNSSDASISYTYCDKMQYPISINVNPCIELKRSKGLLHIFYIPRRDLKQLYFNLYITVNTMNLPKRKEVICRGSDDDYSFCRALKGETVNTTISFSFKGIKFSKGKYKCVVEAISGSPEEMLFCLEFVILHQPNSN
Procedure: as §1

[3] = biological target: T1, his-tagged rhTLR4/MD2; test: modified S100A9 ELISA, TLR4/MD2 coated on the plate, 2 ug/ml S100A9, absorbance at 450 nm
Procedure: (§2) Binding of S100A9 proteins to TLR4/MD2 was analysed by a modified S100A9-ELISA. Briefly, TLR4/MD2 was coupled to the wells of a 96-well plate and served as capturing molecule. After blocking of the unspecific binding sites by PBS/5% skim milk powder plates were washed three times. S100A9-wt or mutant S100A9 proteins were added at a concentration of 2 μg/ml each in the presence and absence of 100 μM Calcium and incubated for two hours at room temperature. Unbound S100A9 was removed by washing the plates for three times followed by the addition of a primary anti-S100A9-antibody (1 μg/ml, polyclonal, rabbit). After a washing step the secondary anti-rabbit-IgG-antibody coupled to HRP (1 μg/ml from Cell Signalling) was added. TMB was used as substrate for HRP to quantify binding by absorbance readings at 450 nm in an ELISA reader (Anthos Mirkosysteme).

[4] = test system: human monocytes; test: Stimulation of human monocytes, TNFα release quantified by ELISA; assay type: cell-based; conditions: human monocytes stimulated for four hours; TNFα by ELISA; FIG. 1
Source text: Using standard techniques known in the art, the inventors expressed the individual human proteins S100A8 and S100A9 in recombinant form, and purified them. After generating homodimers and heterodimers, they analysed the properties of the complexes. FIG. 1 illustrates the stimulation of human monocytes for four hours with the indicated concentrations of (A) recombinant human S100A8, recombinant human S100A9 or human S100A8/S100A9, and (B) recombinant human S100A8/S100A9, recombinant human S100A8/S100A9 (N69A) or S100A8/S100A9 (E78A). TNFα released into the culture medium was quantified by means of ELISA.
Monocytes were isolated from human buffy coats by Ficoll-Paque and subsequent Percoll density centrifugation (Pharmacia, Freiburg, Germany) Cells were cultured in Teflon bags (Biofolie 25; Heraeus Instruments, Hanau, Germany) using McCoy's 5a medium supplemented with 15% fetal calf serum for 1 day before stimulation. Monocytes were incubated for 4 hours with different dosis of hS100A8, hS100A9, hS100A8/S100A9 or the modified proteins as indicated in the figures and TNF-α concentrations in supernatants were determined by ELISA (OptEIA, BD Biosciences, Germany).
Release of cytokine TNF-α was measured in the culture supernatants by ELISA (OptEIA, BD Biosciences). […]

[5] = test system: (S100A8/S100A9)2 tetramers; test: Formation of (S100A8/S100A9)2 tetramers after site directed mutagenesis; set-up: species or system human; conditions: mutation in second calcium binding EF hand of S100A9
Procedure: For the expression of recombinant (rec) proteins without additional peptide sequences, the cDNAs from wt S100A8, wt S100A9 and the S100A9 EF-hand mutants were cloned into the pET11/20 vector [50-NdeI; 30-BamHI]. […] Bacteria were grown at 37° C. in 2×YT for 24 h. Afterwards bacteria were harvested, lysed and the inclusion bodies (IB) prepared. The IB pellet was dissolved in 8 M urea buffer and to establish proper refolding samples were adjusted to pH 2.0-2.5 first by adding hydrochloric acid. After 60 min incubation at room temperature, samples were stepwise dialyzed to get adapted to pH 7.4 for refolding in the presence of 2 mM DTT. After centrifugation (10 min, 60,000 g, 4° C.) to pellet aggregated material, samples were further dialyzed and applied to anion exchange column and gel filtration chromatography. To prepare heterodimeric complexes the recombinant proteins were mixed 1:1 in equimolar concentrations first. Samples were stored as stock solutions at −20° C. Correct refolding and complex formation was assessed by SDS-PAGE, CD spectroscopy, MALDI-MS and ESI-MS.

[6] = biological target: T1, his-tagged rhTLR4/MD2; test: modified S100A9 ELISA, TLR4/MD2 coated on the plate, 2 ug/ml S100A9 protein, absorbance at 450 nm (FIG. 6C)
Procedure: as §2

binding to TLR4/MD2 [1]: able to bind to TLR4/MD2
Molecule: 55-71: synthetic peptide, positions 55-71 of human S100A8, complete C-terminal EF hand, FKELDINTDGAVNFQEF

binding to TLR4/MD2 [1]: able to bind to TLR4/MD2
Molecule: 63-79: synthetic peptide, positions 63-79 of S100A9, complete C-terminal EF hand, MEDLDTNADKQLSFEEF

binding result [6]: binds
B5: S100A9 double mutant with alanine at both Q73 and E77 (ligand)
chain: MTCKMSQLERNIETIINTFHQYSVKLGHPDTLNQGEFKELVRKDLQNFLKKENKNEKVIEHIMEDLDTNADKALSFAEFIMLMARLTWASHEKMHEGDEGPGHHHKPGLGEGTP
notes: Purified recombinant double mutant of human S100A9, homodimer

Further lines, the molecule ahead of its results:

Molecule: 63-79 A5: control peptide 63-79 of S100A9 with E64A, D65A, K72A, Q73A and E77A exchanged to alanine (MAALDTNADAALSFAEF) [reference compound]
binding to TLR4/MD2 [1]: no binding could be detected

Molecule: No. 15: tryptic peptide of human S100A9, amino acid positions 73-85 (QLSFEEFIMLMAR, SEQ ID NO: 3) (QLSFEEFIMLMARTTT)
binding to TLR4/MD2 [1]: specific interaction with TLR4/MD2

B1: control peptide 63-79 5A of S100A9 (E64A, D65A, K72A, Q73A, E77A) (peptide)
peptide: MAALDTNADAALSFAEF
notes: Chemically synthesized control peptide, molecular weight 1758 g/mol; Positions follow the numbering of full-length S100A9 ('nomenclature of S100A9 maintained'); also called 63-79 A5; 63-79 AS
binding result [2]: no binding

B2: recombinant human S100A9 (wild type, homodimer) (ligand)
chain: B5 chain with A73Q, A77E
notes: Uniprot P06702; used as a homodimer; also called S100A9 wt; S100A9-wt
binding result [3]: binds

B3: S100A8/S100A9 (E78A): recombinant human S100A8/S100A9 with S100A9 EF hand II mutation E78A, prevents tetramer formation (protein)
chain 1: MLTELEKALNSIIDVYHKYSLIKGNFHAVYRDDLKKLLETECPQYIRKKGADVWFKELDINTDGAVNFQEFLILVIKMGVAAHKKSHEESHKE
chain 2: B5 chain with A73Q, A77E, E78A
activation of monocytes (TNFα released into the culture medium) [4]: activation of monocytes that is comparable to the activation caused by homodimers
tetramer formation [5]: inhibition of tetramer formation

B4: S100A8/S100A9 (N69A): recombinant human S100A8/S100A9 with S100A9 EF hand II mutation N69A, prevents tetramer formation (protein)
chain 1: B3 chain 1
chain 2: B5 chain with N69A, A73Q, A77E
activation of monocytes (TNFα released into the culture medium) [4]: activation of monocytes that is comparable to the activation caused by homodimers
tetramer formation [5]: inhibition of tetramer formation
